Source: article PMC8797470, “Disruption of the pentraxin 3/CD44 interaction as an efficient therapy for triple‐negative breast cancers” (Clinical and Translational Medicine, 2022)

Legend:
[1] = biological target: T1, CD44 (Homo sapiens, UniProt P16070); test: Ligand binding ELISA on immobilised CD44; settings: HRP-conjugated recombinant proteins; wells coated with 10 μg/ml CD44; 2 h; OD 450 nm
T1 construct: purchased Sino Biological Inc. 12211-H08H
Procedure: Plate wells (9018; Corning Costar) were coated with 10 μg/ml of CD44 (12211‐H08H; Sino Biological Inc.) in PBS (pH 7.2) and then blocking for 1 h with the blocking buffer including 3% milk in PBS. For the stability binding experiments, the PTX3‐devired biotinylated peptides were pre‐incubated in serum for 1, 2, 4 or 6 h. For the binding experiments, the horseradish peroxidase (HRP)‐conjugated recombinant PTX3, PTX3/N, PTX3/C and PTX3NA or PTX3‐devired biotinylated peptides AD9, GR9, P2rdAD9 and P12rdGR9 (32310; LEADGENE) was responded in the well for 2 h. For the peptide of competition experiments, the PTX3‐devired biotinylated peptides RI37 and GI40 were diluted at the indicated concentration in PBS. After 2 h, PBS washed three times and then incubated with 5 μg/ml HRP‐conjugated PTX3 in PBS for 1 h at room temperature (RT). For the antibody competition experiments, Ab‐10 and Ab‐49 were incubated with 5 μg/ml HRP‐conjugated PTX3 in PBS for 2 h at RT. After incubation, the mixtures was responded in the well for 1 h at RT and then PBS washed three times, tetramethyl benzidine (TMB) was used to detect the bound HRP conjugate. After 15 min, the peroxidase reaction was stopped by adding 0.1 M H2SO4. Next, ELISA plate reader was used to detect the optical densities at 450 nm.

[2] = test system: MDA-MB-231 cells; test: Transwell migration and Matrigel invasion assays; type: cell-based, human; settings: treatment in lower well, 18 h
Source text: In migration assay, MDA‐MB‐231 cells seeded in 8.0 μm pore polycarbonate membrane inserts (BD Biosciences) in 24‐well plates. In Matrigel invasion assay, inserts were pre‐coated with an appropriate amount of Matrigel first, and the same number of cells seeded on the Matrigel. After cells adhered on the inserts, serum‐free DMEM medium added in the upper wells. Serum‐free medium containing the treatments of TGF‐β1, PTX3, PTX3NA, PTX3/N, PTX3/C, RI37, GI40, AD9, GR9, IgG1κ, PTX3 Ab‐10 or PTX3 Ab‐49 were then mixed into the lower wells of the 24‐well plates. After incubating for 18 h, cells outside the insert were removed by wiping. The inside the inserts were then stained by 4′,6‐diamidino‐2‐phenylindol (DAPI). Fluorescence microscope was used for counting the total number of migrated cells with 200× magnification. Different from the experimental design for the MDA‐MB‐231 cells, the migrated 4T1‐Luc2 cells in the inside of the insert were detected by luciferase activity.

T1 sequence (P16070 21-220 limits assumed): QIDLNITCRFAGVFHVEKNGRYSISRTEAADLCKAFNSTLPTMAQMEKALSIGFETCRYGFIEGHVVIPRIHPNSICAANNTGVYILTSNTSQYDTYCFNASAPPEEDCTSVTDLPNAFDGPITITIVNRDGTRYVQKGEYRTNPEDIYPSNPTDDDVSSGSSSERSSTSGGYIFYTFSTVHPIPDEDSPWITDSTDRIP

B1: PTX3/C: recombinant truncated mutant, C‐terminus of PTX3, amino acids 180–381 (protein)
chain: ETAILFPMRSKKIFGSVHPVRPMRLESFSACIWVKATDVLNKTILFSYGTKRNPYEIQLYLSYQSIVFVVGGEENKLVAEAMVSLGRWTHLCGTWNSEEGLTSLWVNGELAATTVEMATGHIVPEGGILQIGQEKNGCCVGGGFDETLAFSGRLTGFNIWDSVLSNEEIRETGGAESCHIRGNIVGWGVTEIQPHGGAQYVS
modifications: left off: HRP conjugate, end not stated, kept
[1]
  binding to immobilised CD44: could bind
[2]
  migration and invasion, protein alone: mimics PTX3 to induce
